According to the DeepSol protein solubility set:

Assay: soluble on expression in E. coli; label from the status in PepcDB or PDB records

Row | Sequence | soluble on expression in E. coli
1 | MSLDQEQNVSLLVAGDHELLRDAISEILRREGGFSVEVTGSREGVLKQIEERGGFDVILLDLQMPGMSGLDSLREVATSNANGAVAILAGELTRDVVMSAFKAGARGYIPKTLPLRALPIALRLIASGESYVPAWLTNGGGTTQADGPSFDLLPEELQILEEVSDGRTNKQIAFTLNVTEGAIKMKMRAICMKLGAKNRTHAVVIARQHMMLREGHHHHHH | soluble
2 | MSLDTIAVVLKQPQQVELSRLSLTAPTDDDIVVDVAWSGVSTGTERLLWSGRMPQFPGMGYPLVPGYESVGEVVEAGSATDLKPGQMVFVPGAKCFGEVRGLFGASASRLVVPAKRVVPLDSKLGERGILIALAATAYHAIAARGATPPDCIVGHGVLGRLLARISIALGNPPPVVWEKNPIRSGGAEGYAVVDPASDERRDYRSIYDVSGDPKLLDTLISRIAATGEIVLAGFYSEPLSFSFPPAFMREARIRVAAEWQPPDIGATKALIESGKLSLDGLITHHQEAASAPDAYRIAFEDPACLKMVLNWRPSEGHHHHHH | soluble
3 | MSLDTYTTSEVADLIGVHPNTVRLYEELNLIPKPKRNTNGYRIFNDFHIEQFRFARTALKIEVVQRGLRKDALEIVRTSANRDFDKAISLVNQYLQQLEIEKSNAEEALTIVAQILNGNTPETNKLFLTRKETAEHLNVTIDTLRNWEMNGLLKVKRKQNGYRVYTDEDIKRLKIISALRCANYSLSAILRMLNALSSNPNTNIKTVLDTPKDDDEIISVCDKLITSLKEAEHNAKTMKSHLQIMKKQFSEGHHHHHH | soluble
4 | MSLEAEGDEIYEDLMRSEPVSMPPKMTEYDKRCCCLREIQQTEEKYTDTLGSIQQHFLKPLQRFLKPQDIEIIFINIEDLLRVHTHFLKEMKEALGTPGAANLYQVFIKYKERFLVYGRYCSQVESASKHLDRVAAAREDVQMKLEECSQRANNGRFTLRDLLMVPMQRVLKYHLLLQELVKHTQEAMEKENLRLALDAMRDLAQCVNEVKRDEGHHHHHH | soluble
5 | MSLEAIRIGEINSYSQIPAFTLPYRNGWQLAVEQINAAGGLLGGRPLEVISRDDGGDPGKAVTAAQELLTRHGVHALAGTFLSHVGLAVSDFARQRKVLFMASEPLTDALTWEKGNRYTYRLRPSTYMQAAMLAAEAAKLPITRWATIAPNYEYGQSAVARFKELLLAARPEVTFVAEQWPALYKLDAGPTVQALQQAEPEGLFNVLFGADLPKFVREGRVRGLFAGRQVVSMLTGEPEYLNPLKDEAPEGWIVTGYPWYDIDTAPHRAFVEAYRARWKEDPFVGSLVGYNTLTAMAVAFEKAGGTESETLVETLKDMAFSTPMGPLSFRASDHQSTMGAWVGRTALRDGKGVMVDWRYVDGGSVLPPPEVVSAWRPAGEGHHHHHH | soluble
6 | MSLEDIWHKADELCEKNIKIVIRNLGLNLTISFQCYSHLLQNIPSMLGSIPFQRILSERKNKFDNAIVVSAGPSLTKQLPLLKAYQDKAVVFCADGALSMLEKEGVVPDYVLNIDFEDLPLRFFKNKQNKLSLNILSCATHPSLVHFLDNKSVILRDDPLYQSFNLNDFGYIDTGTHVSHFSYTLALALGFKNIIMIGQDLAFDEEGNSHSKGFDFGEKFEEEHKKYKLKTQAYGGKGEVLTHITWNDYRVKLEYLFACNDQKAKFYNATEGGARINFTEELSFKECCEKLLTKEKPKFELPKSLTKNRSDKLLAKFKEKIQKDQENAKRFLDDEGHHHHHH | soluble
7 | MSLEENDDDMVGMVDLKIDLERVVRNAVDDAKEVCTQHYGDCPDVKFIISKDANTMRFPHMSSTITYIVVELMKNAFRATVESHMERNSAGMVDCSNMPPVEVLVNIKKNAKHACICVSDEGLGMTRAQCELAMTYAYTTVKRPVIQHGADEDPEEERNGVSPLAGYGFGLPMSRVYAQAFGGDLVMSTMEGYGTRVYYYIKEGHHHHHH | soluble
8 | MSLEGHIVITGATGVIGSEVARRLIKSGREVVVFARSPQSAAAKVPGAADYVRWDSDMAPDGWSSSIDGAYAVIHLAGRPLLETRWTEEHKVACYDSRIKGTRALVAAMASASVKPKVFVSSSAIGYYGSFDRCEETDPLTEKAAPGKDFLAKICFDWEKEARPAETLGTRVVLLRTGIVLSTKGGMLQKMMIPFSYFVGGPVGSGDQCLSWIHLDDEVSIILQALDNADWSGPVNAVAPEPVSMKAFADSLGLVMHRPSLFPVPKLAVQILLGEGADYAVKGQKVSPEFLKERDFHFAWPSLNEALADLVSRGEGHHHHHH | soluble
9 | MSLEGRSRLWPKTSAPGAFSRRSPERSWPSRRVQRHFPAKEGREAASAAALRASRRSMVGLTVAVRTGPCDLATRKTKSRWATGSDMTKSSKATSLEILACDAGWRNYHFVKLTTDDGIVGWSEFDEGFGSPGVGAAIQRLSTRIIGQNIFQHERIYAELFAATRPAAGGVVAQALGAIENAMLDAKAKCLGVPCYELLGGKIRDRVRVYWSHCATWRINHPSWYKPPIESLDGVKAMGREVREKKFTALKTNIFSYDDGKPTGWRPGFGSPFAPEINVDRKILRDLRMHLEAIRDGAGPDVDILLDCNFNAKTEGYLKILRTIADLDMFWIEIDSFNPEALGYIRRQSPHPISSCETLLGLREFLPYFHEQAMDVAIIDTPWNGVWQSMKIASAAEAFEVNVAPHNFYGHLCSMMNAHFCAAVPNLRIMEIDIDRLSWDRELFTHEPEIEDGHLIIPDRPGWGTEPNEEALRAHPPKTNGGLLNYGRKSEGHHHHHH | not soluble
10 | MSLEISNRLKSISEVMDRCEIAADIGTDHAYLPIYLIKNNLCKRFIASDVNAGPLKKAINNINKYKLEDKIECRLGSGLNVLKLEEVDVVVIAGMGGNLIRDIIEERLDIFKKLKYAVLQPVQNPEILREYLIKRGFNIIEEQLCIDESKYYEIIKVCYDSKIEDKDDVYYEIGDKLIDMKHPLLKEYINYKIRKYDKIYKNISEESLNALSRKNELSIKIRKLKELLSCLEGHHHHHH | soluble
11 | MSLEKLAASTEPQGPRPVLGRESVQVPDDQDFRSFRSECEAEVGWNLTYSRAGVSVWVQAVEMDRTLHKIKCRMECCDVPAETLYDVLHDIEYRKKWDSNVIETFDIARLTVNADVGYYSWRCPKPLKNRDVITLRSWLPMGADYIIMNYSVKHPKYPPRKDLVRAVSIQTGYLIQSTGPKSCVITYLAQVDPKGSLPKWVVNKSSQFLAPKAMKKMYKACLKYPEWKEGHHHHHH | not soluble
12 | MSLELEAKLAQANEQIKELSKREERVRIARDLHDTLGHTLSLLTLKSQLIQRLAASDPERTKLEAKEMETSSRSALKQVRELVSDMRTVTITEELVNIQHILRAGNITFQYEGADDFSVISPVTQNIISMCMREAVTNIIKHSKATHCAITISQFADKMRIVIRDDGKGAPKEKMFGNGLWGMEERLMLIEGGLTVSDHNGTVVALTIPLIKKAEEGHHHHHH | soluble
13 | MSLELTVFSIGDWGEKTECLVNVTTKMGSLESAMNPKFIISVGDNFYQRGVKSVEDAAWTEILEEPFGKLSKHLKVHSCLGDHDWRGSTTAQIDRTNYANNTRWYLPGYWWYEKVTFTSEVSLPSLFEKSGLGEISANNSFHFNSSKTENSTSCEIDCLDEIVDNLNTMVNRNNSWNEDLSYKTSISEYFSEKQVNSTAVFIYIDSWTLTQDPFKKTSISYKYSQLEFIEQTLKAAVFENVDWIILVTHYSIYSSGLHGPHTRLASILMPLIKKYRVDFIISGHDHHSEILVPEDFNSYFQIVGASSKPRTSFGATDENSIFKSNTCSFASFTFSKDIAVSRIFSINSSLFSYFKRSNKFEREGHHHHHH | not soluble
14 | MSLENFRSNVRKPTMSLQIAVEKVRWLAAGLLELNGCDADIAQDVAEHMIEAERYGFASHGVTLLPKYLENIARGDVTANARPECLTSEGNLQRFHAHNGFGQHAGKVAVNAAIEQAKRRGFCLLTLCHAHHLGRMGHYGQMVADQGLAMLAMSNVTGRPALVAPWGGAEPRMTTNPFCFAWPFSDGRPPILVDFATSSMALNKARVMSSTGKQAAPGQLIDAQGNPSNDPGVLFSNPPGALLPFGEHKGFGLALMIEMMAGILSGGDTIAEDHQTDGSAHNHLFALIIDPDQFTDLAGEKGQFFADYLLATQPQPGGNPVIYPGMPEAANRERNAKMITIPVSFWSWVVEHYARKGIDLGLHPQESALAEGHHHHHH | soluble
15 | MSLENHHEAKTKLGQLWKLGNHYLLCGDATKLSDVEKLLQGKKANLVVTDPPYNVAVKSDNKELNESGREKIMNDDMSDEEFDQFLMSVFQNYSNAMRDDSAIYVFHGSSYQREFENSMNAAGIVVRSQCIWVKNNATFGWSQYRWQHEPVFYAHKKKQAPSWYGDRKQTTIWQDDLLEDLPATIWKVPRDDVATYYHPTQKPLSLIAIPVRNSSKRQDIVLDLFGGSGSTLMTCEQLNRICYTLELDPLFCDVIIERFEKSTGIIAELVEGHHHHHH | soluble
16 | MSLEPKYQRILIKLSGEALAGEKGVGIDIPTVQAIAKEIAEVHVSGVQIALVIGGGNLWRGEPAADAGMDRVQADYTGMLGTVMNALVMADSLQHYGVDTRVQTAIPMQNVAEPYIRGRALRHLEKNRIVVFGAGIGSPYFSTDTTAALRAAEIEADAILMAKNGVDGVYNADPKKDANAVKFDELTHGEVIKRGLKIMDATASTLSMDNDIDLVVFNMNEAGNIQRVVFGEHIGTTVSNKVCDEGHHHHHH | soluble
17 | MSLEPYAAKAHEGYLRNLMLRYSERHEQLMVNIVTSWYDKALMQALKERLEAAMPEQQMTLLNNVTTRKNTVATGEQEYVISGDGYVTERLGDLDFRISANSFFQTNTRQAETLYDQIIAVGGITPEDTVYDLYCGTGTITLYLARHCKQAIGIEVVESAVKDAEMNAELNGLSNTVFFQADLKNFHAMQEALEPYAKPRIIVTDPPRAGMHPKALDTMLKLQPERIVYVSCNPDNLARDGKEIAARGYRMTSAQPVDMFPQTNHIETVACFERAEGHHHHHH | not soluble
18 | MSLEQGIAARKAEAESNASTKGESPDYPGQQVIWRLIQEAGESLRDELRTLAFTLHDHPEEAFEEVFATEEITKLLQNHGFEVQSGVYGVKTALETSFETPGYDPAQHPSIAILAEYDALPEIGHACGHNIIAAAGVGAFLAVTNMIKTAEVKGVDHLDFEGRIVLLGTPAEEGHSGKEYMIRNGAFDGIDASIMMHPFGFDLAEHVWVGRRTMTATFHGVSAHASSQPFMGKNALDAASLAYQGFGVLRQQMPPSDRLHAIITEGGNRPSIIPDTATMSLYVRSLLPEALKDISKRVDDVLDGAALMAGVGVEKQWDVHPASLPVRNNHVLARRWAKTQNLRGRTALSEGILPDTLAASTDFGNVSHLVPGIHPMVKISPENVALHTKEFAAYARTEEAIDAAVDAAIGLAQVAVDALADPQMLIDATLEFTNSGDVLKVGDYLAEGHHHHHH | soluble
19 | MSLESLFQHIIFTEHQAEESRRLMREVRSEITRCREKIKKATEELNEEKIKLESKVQQFFEKSFFLQLLKAHENALEKQYSEITNHRNMLLQTFEAIKKQMIEEEDKFIKEITDFNNDYEITKKRELLMKENVKIEISDLENQANMLKSEMKSMEHDSSQLNELQKQKSELIQELFTLQRKLKVFEDEENESICTTKYLEAEKIKISEKPQNDTECLRLKKELELYKEDDMESVYEALQTEIEFLELTLAQKDLQESK | not soluble
20 | MSLESPQTQSEISIHQLVVGKPANDGNIPAQCELLRCSLQEGMDILLWRGHFARPETLQLHDDLGRINFSCILEGTSRFAIQGLRRHTDWELARNRHYITHTPDCRGSASYCGRFESITLSFSPETLALWVPDISAVIKNKIDSHCCCQQQRCNAETHLTAQALRHALMRMHGGFSHEQKPSTLWLQGQSLVMLSLVLDEHREDASCLSCHFNPMERQKLLRAKDLLLADLTQAPGVAELARESGLSVLKIKRGFRVLFNNSVYGLFQAERMQEARRRLANGNTSVMTVAADLGYANASHFSAAFQKQFGVTPSTFKRGEGHHHHHH | not soluble
